The values that follow come from patent US20240350653A1 (JOINT STOCK COMPANY GENERIUM, published 2024).

As usually defined, the EC50 is the concentration needed to bring the measured effect to its halfway point. Read a low EC50 as a more potent agent.

Experiment [1] has as its target T1, Human Insulin Receptor protein fragment (Abcam cat #ab200510) (human, UniProt P06213-2 28-944, limits assumed).
T1 construct: domain: extracellular domain of the alpha subunit; Bought fragment; also called HIR; extracellular domain of the alpha subunit of the human insulin receptor
The experiment in a line: ELISA on human insulin receptor fragment, relative to 83-14 mAb.

The target in experiment [2] is T2, mouse insulin receptor (mInsR, R&D Systems, Inc., Cat. No. 7544-MR) (mouse, UniProt P15208 28-946, limits assumed).
T2 construct: extracellular domain; Bought protein; also called extracellular domain of the mouse insulin receptor
The experiment in a line: ELISA on mouse insulin receptor.

Experiment [3] addresses T1, Human Insulin Receptor protein fragment …. The experiment in a line: ELISA on human insulin receptor fragment.

B1: HIR-FAB-IDS (SEQ ID NO: 2 and SEQ ID NO: 4) (Fab)
light: DIQMTQSPSSLSASLGERVSLTCRASQDIGGNLYWLQQGPDGTIKRLIYATSSLDSGVPKRFSGSRSGSDYSLTISSLESEDFVDYYCLQYSSSPWTFGGGTKMEIKRTVAAPSVFIFPPSDEQLKSGTASVVCLLNNFYPREAKVQWKVDNALQSGNSQESVTEQDSKDSTYSLSSTLTLSKADYEKHKVYACEVTHQGLSSPVTKSFNRGEC
heavy: QVQLQQSGPELVKPGALVKISCKASGYTFTNYDIHWVKQRPGQGLEWIGWIYPGDGSTKYNEKFKGKATLTADKSSSTAYMHLSSLTSEKSAVYFCAREWAYWGQGTLVTVSAASTKGPSVFPLAPSSKSTSGGTAALGCLVKDYFPEPVTVSWNSGALTSGVHTFPAVLQSSGLYSLSSVVTVPSSSLGTQTYICNVNHKPSNTKVDKKVEPKSCDKTHLSSSETQANSTTDALNVLLIIVDDLRPSLGCYGDKLVRSPNIDQLASHSLLFQNAFAQQAVCAPSRVSFLTGRRPDTTRLYDFNSYWRVHAGNFSTIPQYFKENGYVTMSVGKVFHPGISSNHTDDSPYSWSFPPYHPSSEKYENTKTCRGPDGELHANLLCPVDVLDVPEGTLPDKQSTEQAIQLLEKMKTSASPFFLAVGYHKPHIPFRYPKEFQKLYPLENITLAPDPEVPDGLPPVAYNPWMDIRQREDVQALNISVPYGPIPVDFQRKIRQSYFASVSYLDTQVGRLLSALDDLQLANSTIIAFTSDHGWALGEHGEWAKYSNFDVATHVPLIFYVPGRTASLPEAGEKLFPYLDPFDSASQLMEPGRQSMDLVELVSLFPTLAGLAGLQVPPRCPVPSFHVELCREGKNLLKHFRFRDLEEDPYLPGNPRELIAYSQYPRPSDIPQWNSDKPSLKDIKIMGYSIRTIDYRYTVWVGFNPDEFLANFSDIHAGELYFVDSDPLQDHNMYNDSQGGDLFQLLMP
notes: Fab fragment of an IgG1 antibody to the human insulin receptor, fused to iduronate-2-sulfatase; also called rIDS-FAB-HI; rHI-FAB-IDS
As to B1, the “Receptor binding from antibody 83-14 mAb, %” value in experiment [1] was found to be 136%. Besides, the 50% effective concentration (EC50) in experiment [2] was over 0.8 mg/L; in experiment [3], 0.0243 mg/L. For the same molecule, the “Receptor binding, %” value in experiment [2] stood at 0%.

B2: HIR-FAB-IDS (SEQ ID NO: 8 and SEQ ID NO: 12) (Fab)
light: DIQMTQSPSSLSASVGDRVTITCRASQDIGGNLYWYQQKPGKAPKLLIYATSSLDSGVPSRFSGSGSGTDFTLTISSLQPEDVATYYCLQYSSSPWTFGQGTKVEIKRTVAAPSVFIFPPSDEQLKSGTASVVCLLNNFYPREAKVQWKVDNALQSGNSQESVTEQDSKDSTYSLSSTLTLSKADYEKHKVYACEVTHQGLSSPVTKSFNRGEC
heavy: EVQLVESGGGLVQPGRSLRLSCAASGFTFTNYDIHWVRQAPGKGLEWVSWIYPGDGSTKYNEKFKGRFTISRDNAKNSLYLQMNSLRAEDTAVYYCAKEWAYWGQGTLVTVSSASTKGPSVFPLAPSSKSTSGGTAALGCLVKDYFPEPVTVSWNSGALTSGVHTFPAVLQSSGLYSLSSVVTVPSSSLGTQTYICNVNHKPSNTKVDKKVEPKSCDKTHLSSSETQANSTTDALNVLLIIVDDLRPSLGCYGDKLVRSPNIDQLASHSLLFQNAFAQQAVCAPSRVSFLTGRRPDTTRLYDFNSYWRVHAGNFSTIPQYFKENGYVTMSVGKVFHPGISSNHTDDSPYSWSFPPYHPSSEKYENTKTCRGPDGELHANLLCPVDVLDVPEGTLPDKQSTEQAIQLLEKMKTSASPFFLAVGYHKPHIPFRYPKEFQKLYPLENITLAPDPEVPDGLPPVAYNPWMDIRQREDVQALNISVPYGPIPVDFQRKIRQSYFASVSYLDTQVGRLLSALDDLQLANSTIIAFTSDHGWALGEHGEWAKYSNFDVATHVPLIFYVPGRTASLPEAGEKLFPYLDPFDSASQLMEPGRQSMDLVELVSLFPTLAGLAGLQVPPRCPVPSFHVELCREGKNLLKHFRFRDLEEDPYLPGNPRELIAYSQYPRPSDIPQWNSDKPSLKDIKIMGYSIRTIDYRYTVWVGFNPDEFLANFSDIHAGELYFVDSDPLQDHNMYNDSQGGDLFQLLMP
notes: Variant of the Fab-iduronate-2-sulfatase fusion
Regarding B2, the “Receptor binding from antibody 83-14 mAb, %” value in experiment [1] amounted to 27%. For the same molecule, in experiment [2], the EC50 is over 0.8 mg/L and the “Receptor binding, %” value is 0%. The EC50 in experiment [3] was 0.121 mg/L.

B3: HIR-FAB-IDS (SEQ ID NO: 11 and SEQ ID NO: 15) (Fab)
light: EIVLTQSPATLSLSPGERATLSCRASQDIGGNLYWYQQKPGQAPRLLIYATSSLDSGIPARFSGSGSGTDFTLTISSLEPEDFAVYYCLQYSSSPWTFGQGTRLEIKRTVAAPSVFIFPPSDEQLKSGTASVVCLLNNFYPREAKVQWKVDNALQSGNSQESVTEQDSKDSTYSLSSTLTLSKADYEKHKVYACEVTHQGLSSPVTKSFNRGEC
heavy: EVQLVESGGGLVQPGRSLRLSCAASGFTFNNYDIHWVRQAPGKGLEWVSWIYPGDGSTKYNEKFKGRFTISRDNAKKSLYLQMNSLRAEDTALYYCAKEWAYWGQGTTVTVSSASTKGPSVFPLAPGSSKSTSGTAALGCLVKDYFPEPVTVSWNSGALTSGVHTFPAVLQSSGLYSLSSVVTVPSSSLGTQTYICNVNHKPSNTKVDKKVEPKSCDKTHLSSSETQANSTTDALNVLLIIVDDLRPSLGCYGDKLVRSPNIDQLASHSLLFQNAFAQQAVCAPSRVSFLTGRRPDTTRLYDFNSYWRVHAGNFSTIPQYFKENGYVTMSVGKVFHPGISSNHTDDSPYSWSFPPYHPSSEKYENTKTCRGPDGELHANLLCPVDVLDVPEGTLPDKQSTEQAIQLLEKMKTSASPFFLAVGYHKPHIPFRYPKEFQKLYPLENITLAPDPEVPDGLPPVAYNPWMDIRQREDVQALNISVPYGPIPVDFQRKIRQSYFASVSYLDTQVGRLLSALDDLQLANSTIIAFTSDHGWALGEHGEWAKYSNFDVATHVPLIFYVPGRTASLPEAGEKLFPYLDPFDSASQLMEPGRQSMDLVELVSLFPTLAGLAGLQVPPRCPVPSFHVELCREGKNLLKHFRFRDLEEDPYLPGNPRELIAYSQYPRPSDIPQWNSDKPSLKDIKIMGYSIRTIDYRYTVWVGFNPDEFLANFSDIHAGELYFVDSDPLQDHNMYNDSQGGDLFQLLMP
notes: as for B2
Consider B3, for which the “Receptor binding from antibody 83-14 mAb, %” value in experiment [1] came out at 21%. Further, the EC50 in experiment [2] was over 0.8 mg/L; in experiment [3], 0.156 mg/L. The “Receptor binding, %” value in experiment [2] was 0%.

B4: HIR-FAB-IDS (SEQ ID NO: 9 and SEQ ID NO: 13) (Fab)
light: EIVLTQSPDFQSVTPKEKVTITCRASQDIGGNLYWYQQKPDQSPKLLIKATSSLDSGVPSRFSGSGSGTDFTLTINSLEAEDAAAYYCLQYSSSPWTFGPGTKVDIKRTVAAPSVFIFPPSDEQLKSGTASVVCLLNNFYPREAKVQWKVDNALQSGNSQESVTEQDSKDSTYSLSSTLTLSKADYEKHKVYACEVTHQGLSSPVTKSFNRGEC
heavy: QVQLVESGGGVVQPGRSLRLSCAASGFTFSNYDIHWVRQAPGKGLEWVAWIYPGDGSTKYNEKFKGRFTISRDNSKNTLYLQMNGLRAEDTAVYYCAREWAYWGQGTLVTVSSASTKGPSVFPLAPSSKSTSGGTAALGCLVKDYFPEPVTVSWNSGALTSGVHTFPAVLQSSGLYSLSSVVTVPSSSLGTQTYICNVNHKPSNTKVDKRVEPKSCDKTHLSSSETQANSTTDALNVLLIIVDDLRPSLGCYGDKLVRSPNIDQLASHSLLFQNAFAQQAVCAPSRVSFLTGRRPDTTRLYDFNSYWRVHAGNFSTIPQYFKENGYVTMSVGKVFHPGISSNHTDDSPYSWSFPPYHPSSEKYENTKTCRGPDGELHANLLCPVDVLDVPEGTLPDKQSTEQAIQLLEKMKTSASPFFLAVGYHKPHIPFRYPKEFQKLYPLENITLAPDPEVPDGLPPVAYNPWMDIRQREDVQALNISVPYGPIPVDFQRKIRQSYFASVSYLDTQVGRLLSALDDLQLANSTIIAFTSDHGWALGEHGEWAKYSNFDVATHVPLIFYVPGRTASLPEAGEKLFPYLDPFDSASQLMEPGRQSMDLVELVSLFPTLAGLAGLQVPPRCPVPSFHVELCREGKNLLKHFRFRDLEEDPYLPGNPRELIAYSQYPRPSDIPQWNSDKPSLKDIKIMGYSIRTIDYRYTVWVGFNPDEFLANFSDIHAGELYFVDSDPLQDHNMYNDSQGGDLFQLLMP
notes: as for B2
With B4, the “Receptor binding from antibody 83-14 mAb, %” value in experiment [1] was 55%. For the same molecule, in experiment [2], the EC50 is over 0.8 mg/L and the “Receptor binding, %” value was 0%. In experiment [3], the 50% effective concentration (EC50) is 0.0604 mg/L.

B5: HIR-FAB-IDS (SEQ ID NO: 10 and SEQ ID NO: 14) (Fab)
light: DIQLTQSPSSLSASVGDRVTITCRASQDIGGNLYWYQQKPGKAPKVLIYATSSLDSGVPSRFSGSGSGTDFTLTISSLQPEDFATYYCLQYSSSPWTFGQGTKVEIKRTVAAPSVFIFPPSDEQLKSGTASVVCLLNNFYPREAKVQWKVDNALQSGNSQESVTEQDSKDSTYSLSSTLTLSKADYEKHKVYACEVTHQGLSSPVTKSFNRGEC
heavy: EVQLVESGGGLVQPGGSLRLSCAASGYDFTNYDIHWVRQAPGKGLEWVGWIYPGDGSTKYNEKFKGRFTFSLDTSKSTAYLQMNSLRAEDTAVYYCAKEWAYWGQGTLVTVSSASTKGPSVFPLAPSSKSTSGGTAALGCLVKDYFPEPVTVSWNSGALTSGVHTFPAVLQSSGLYSLSSVVTVPSSSLGTQTYICNVNHKPSNTKVDKKVEPKSCDKTHLSSSETQANSTTDALNVLLIIVDDLRPSLGCYGDKLVRSPNIDQLASHSLLFQNAFAQQAVCAPSRVSFLTGRRPDTTRLYDFNSYWRVHAGNFSTIPQYFKENGYVTMSVGKVFHPGISSNHTDDSPYSWSFPPYHPSSEKYENTKTCRGPDGELHANLLCPVDVLDVPEGTLPDKQSTEQAIQLLEKMKTSASPFFLAVGYHKPHIPFRYPKEFQKLYPLENITLAPDPEVPDGLPPVAYNPWMDIRQREDVQALNISVPYGPIPVDFQRKIRQSYFASVSYLDTQVGRLLSALDDLQLANSTIIAFTSDHGWALGEHGEWAKYSNFDVATHVPLIFYVPGRTASLPEAGEKLFPYLDPFDSASQLMEPGRQSMDLVELVSLFPTLAGLAGLQVPPRCPVPSFHVELCREGKNLLKHFRFRDLEEDPYLPGNPRELIAYSQYPRPSDIPQWNSDKPSLKDIKIMGYSIRTIDYRYTVWVGFNPDEFLANFSDIHAGELYFVDSDPLQDHNMYNDSQGGDLFQLLMP
notes: as for B2
Consider B5, for which the “Receptor binding from antibody 83-14 mAb, %” value in experiment [1] came to 94%. In experiment [2], the EC50 is over 0.8 mg/L and the “Receptor binding, %” value came to 0%. Also, the response in experiment [3] was half-maximal at 0.0351 mg/L (EC50).
